US20210163900

Tested on: T1, MTA1c (MTA1/MTA9/p1/p2 complex) (Tetrahymena thermophila)
T1 sequence 1: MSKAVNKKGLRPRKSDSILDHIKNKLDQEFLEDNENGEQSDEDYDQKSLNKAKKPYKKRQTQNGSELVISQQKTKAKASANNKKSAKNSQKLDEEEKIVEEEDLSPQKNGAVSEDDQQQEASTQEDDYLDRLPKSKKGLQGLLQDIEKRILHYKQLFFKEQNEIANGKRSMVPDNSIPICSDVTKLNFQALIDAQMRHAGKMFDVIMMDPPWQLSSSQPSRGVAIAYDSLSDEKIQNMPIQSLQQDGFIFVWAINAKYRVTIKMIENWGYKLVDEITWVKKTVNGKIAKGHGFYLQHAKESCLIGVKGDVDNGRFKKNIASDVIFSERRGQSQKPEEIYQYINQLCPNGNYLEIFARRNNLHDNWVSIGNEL
T1 sequence 2: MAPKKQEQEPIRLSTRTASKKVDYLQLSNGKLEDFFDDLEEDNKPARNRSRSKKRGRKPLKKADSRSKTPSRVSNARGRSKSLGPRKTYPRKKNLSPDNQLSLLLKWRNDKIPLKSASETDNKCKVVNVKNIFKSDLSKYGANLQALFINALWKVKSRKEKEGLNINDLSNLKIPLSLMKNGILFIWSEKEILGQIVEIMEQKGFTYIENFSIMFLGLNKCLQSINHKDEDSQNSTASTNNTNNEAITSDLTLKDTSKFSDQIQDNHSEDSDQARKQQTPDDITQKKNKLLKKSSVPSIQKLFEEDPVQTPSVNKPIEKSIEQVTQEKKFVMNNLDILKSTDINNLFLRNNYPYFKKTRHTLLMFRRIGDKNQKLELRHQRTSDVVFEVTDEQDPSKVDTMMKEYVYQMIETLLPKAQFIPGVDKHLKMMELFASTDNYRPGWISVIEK
T1 sequence 3: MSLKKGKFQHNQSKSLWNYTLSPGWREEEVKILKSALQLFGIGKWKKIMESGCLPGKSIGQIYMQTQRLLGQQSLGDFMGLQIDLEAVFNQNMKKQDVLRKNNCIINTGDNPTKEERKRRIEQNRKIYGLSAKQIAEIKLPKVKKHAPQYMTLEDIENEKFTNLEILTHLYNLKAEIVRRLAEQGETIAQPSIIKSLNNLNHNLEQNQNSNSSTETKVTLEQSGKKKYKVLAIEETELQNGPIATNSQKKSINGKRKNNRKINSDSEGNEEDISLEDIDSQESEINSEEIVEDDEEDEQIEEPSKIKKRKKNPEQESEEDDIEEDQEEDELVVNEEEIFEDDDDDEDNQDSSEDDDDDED
T1 sequence 4: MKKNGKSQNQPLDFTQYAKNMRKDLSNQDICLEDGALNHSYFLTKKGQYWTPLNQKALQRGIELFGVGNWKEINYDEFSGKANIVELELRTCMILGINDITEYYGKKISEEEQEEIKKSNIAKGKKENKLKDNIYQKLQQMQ
Details: [3H]SAM assay, reference substrate

Question: For 27 bp dsDNA with two ApT motifs, which activity (relative activity) is on record?
Answer: 1
